Reference: IntAct's records for PubMed 16000169

B1: DNA polymerase delta subunit 3 (Homo sapiens), Q15054 (parent)
chain: MADQLYLENIDEFVTDQNKIVTYKWLSYTLGVHVNQAKQMLYDYVERKRKENSGAQLHVTYLVSGSLIQNGHSCHKVAVVREDKLEAVKSKLAVTASIHVYSIQKAMLKDSGPLFNTDYDILKSNLQNCSKFSAIQCAAAVPRAPAESSSSSKKFEQSHLHMSSETQANNELTTNGHGPPASKQVSQQPKGIMGMFASKAAAKTQETNKETKTEAKEVTNASAAGNKAPGKGNMMSNFFGKAAMNKFKVNLDSEQAVKEEKIVEQPTVSVTEPKLATPAGLKKSSKKAEPVKVLQKEKKRGKRVALSDDETKETENMRKKRRRIKLPESDSSEDEVFPDSPGAYEAESPSPPPPPSPPLEPVPKTEPEPPSVKSSSGENKRKRKRVLKSKTYLDGEGCIVTEKVYESESCTDSEEELNMKTSSVHRPPAMTVKKEPREERKGPKKGTAALGKANRQVSITGFFQRK

Variants of: B1
Conditions: with pcna_human PCNA

effect of a mutation on the interaction | Variant
disrupting interaction | MADQLYLENIDEFVTDQNKIVTYKWLSYTLGVHVNQAKQMLYDYVERKRKENSGAQLHVTYLVSGSLIQNGHSCHKVAVVREDKLEAVKSKLAVTASIHVYSIQKAMLKDSGPLFNTDYDILKSNLQNCSKFSAIQCAAAVPRAPAESSSSSKKFEQSHLHMSSETQANNELTTNGHGPPASKQVSQQPKGIMGMFASKAAAKTQETNKETKTEAKEVTNASAAGNKAPGKGNMMSNFFGKAAMNKFKVNLDSEQAVKEEKIVEQPTVSVTEPKLATPAGLKKSSKKAEPVKVLQKEKKRGKRVALSDDETKETENMRKNGGRIKLPESDSSEDEVFPDSPGAYEAESPSPPPPPSPPLEPVPKTEPEPPSVKSSSGENKRKRKRVLKSKTYLDGEGCIVTEKVYESESCTDSEEELNMKTSSVHRPPAMTVKKEPREERKGPKKGTAALGKANRQVSITGFFQRK [K320N;R321G;R322G]
